Read-outs that look alike come from different tables or passages of the source. Values belong to the binder of their own block, whether it stands above or below them. Where no end group is shown, it is not given here.
Assays:
Assay in all cases: cell-based or functional assay
[1] = target: T1, human recombinant adrenomedullin receptor (CRLR+RAMP3) (human)
[2] = target: T2, Adrenomedullin 1-52-Gly (ADM-Gly) (human, not fully specified)
T2 peptide: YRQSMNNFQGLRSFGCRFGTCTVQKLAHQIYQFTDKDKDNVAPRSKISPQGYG

[3] = target: T1, human recombinant adrenomedullin …; remark: listed apart in the source

T1 sequence (Q16602 whole entry, chain 1 of 2): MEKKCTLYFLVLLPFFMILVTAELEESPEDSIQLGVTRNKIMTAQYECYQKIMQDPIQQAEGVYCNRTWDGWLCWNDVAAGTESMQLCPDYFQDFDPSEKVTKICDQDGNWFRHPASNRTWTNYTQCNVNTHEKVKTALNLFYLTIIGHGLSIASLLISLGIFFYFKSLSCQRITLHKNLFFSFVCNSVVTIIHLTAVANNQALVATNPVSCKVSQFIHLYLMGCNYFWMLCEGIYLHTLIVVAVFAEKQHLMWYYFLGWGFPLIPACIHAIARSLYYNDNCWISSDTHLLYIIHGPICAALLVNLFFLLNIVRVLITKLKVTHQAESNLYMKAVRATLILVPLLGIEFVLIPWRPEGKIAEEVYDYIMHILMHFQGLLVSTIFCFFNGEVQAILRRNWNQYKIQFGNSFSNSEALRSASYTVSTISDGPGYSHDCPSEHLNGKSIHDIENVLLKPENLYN
T1 sequence (O60896 whole entry, chain 2 of 2, further chain): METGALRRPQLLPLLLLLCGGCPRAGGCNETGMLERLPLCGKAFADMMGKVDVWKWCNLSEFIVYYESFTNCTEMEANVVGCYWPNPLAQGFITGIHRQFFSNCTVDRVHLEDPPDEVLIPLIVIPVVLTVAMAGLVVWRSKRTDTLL

EC50 (read off the curve), cAMP stimulation [1]: ~80 pM
B1: Mouse ADM 1-50 (peptide)
peptide: YRQSMNQGSRSNGCRFGTCTFQKLAHQIYQLTDKDKDGMAPRNKISPQGY-NH2
modifications: ends and bridges not checked

formation of bio-ADM from ADM-Gly by native human plasma PAM after 90 minutes, with 300 µg/mL HAM8101 against without [2]: 4 fold
B2: HAM8101 (antibody, human IgG1, kappa, V domains shown)
VH: QVQLVQSGAEVKKPGSSVKVSCKASGYTFSRYWIEWVRQAPGQGLEWIGEILPGSGSTNYNQKFQGRVTITADTSTSTAYMELSSLRSEDTAVYYCTEGYEYDGFDYWGQGTTVTVSS
VL: DVVLTQSPLSLPVTLGQPASISCRSSQSIVYSNGNTYLEWYLQRPGQSPRLLIYRVSNRFSGVPDRFSGSGSGTDFTLKISRVEAEDVGVYYCFQGSHIPYTFGGGTKLEIKR

EC50 (read off the curve), cAMP stimulation [3]: ~1000 pM
B3: mature human Adrenomedullin (Human ADM 1-52) (peptide)
peptide: YRQSMNNFQGLRSFGCRFGTCTVQKLAHQIYQFTDKDKDNVAPRSKISPQGY-NH2
modifications: ends and bridges not checked
